In US9555076B2, “Neuregulin based methods and compositions for treating cardiovascular diseases” (Zensun (Shanghai) Science & Technology, Co., Ltd., priority 2002, dated 2017):

Columns and labels:
[1] = system: acute myocardial injury caused by viral (Coxsackie B3) infection in mice; assay: Myocardial pathologic score, mice infected with Coxsackie B3 virus; format: in vivo, BALB/C mice; design: key: 0-4 score: 0 = 0%, 1 = 25%, 2 = 50%, 3 = 75%, 4 = 100% lesion area
Description: The survived mice were killed through dislocating the cervical spine, aseptic thoracotomy was performed and the heart extirpated, heart weight measured and put the myocardium into formaldehyde for fixation, embedded in paraffin, consecutive section made and pathologic examination performed, observed inflammatory cells infiltration of the myocardium, degeneration and necrosis. Based on the Principle of New Drug Evaluation Guideline, pathologic scoring criteria was defined as follow: • Score 0: lesion area accounting for 0%; • Score 1: lesion area accounting for 25%; • Score 2: lesion area accounting for 50%; • Score 3: lesion area accounting for 75%; • Score 4: lesion area accounting for 100%; • Scoring could be performed between score 1 and score 2 or between score 2 and score 3, e.g. when lesion area was 80% was scored as score 3.2, 7.3.3.4 Observation On Survival Of Mice

[2] = system: acute myocardial injury caused by viral (Coxsackie B3) infection in mice; assay: Echocardiography heart function, mice infected with Coxsackie B3 virus; format: in vivo, BALB/C mice
Description: Drug administration of both the testing drug group and the model group was intravenous injection into the tail vein of mice, once every day (qd), for consecutive 5 days, volume of each of the drug administered was 0.2 ml/animal.
0.2 ml of 100×TCID50 CVB3 provided by Zhong Shan Hospital affiliated to Fudan University was injected intra-abdominally and established myocarditis model. Within the following week, the mouse manifested pilo-erection, depilation, emaciation, dullness and death, about half of the tested animals died at the 8th day.
Intravenous injection of the testing drug into the tail vein was carried out the same day of intra-abdominal viral infection in mice, the injection was performed for consecutive 5 days, animal survival rate was monitored, after completion of the experiment, echocardiograph, myocardial pathologic examination, serum troponin determination were carried out.
Chest depilating was performed at the 7th day of viral injection, then the mouse was fixed on special made fixed mount and echocardiograph was carried out with S12 high-frequency probe, the main index included: • EF: ejection fraction of left ventricle, being major index reflecting ejection function of left ventricle; • FS: shortening fraction of left ventricle, index reflecting contraction function of left ventricle; • LVDd: diastolic maximal inner diameter (cm); • LVDs: systolic minimal inner diameter (cm). 7.3.3.2 Determination of Serum Troponin I (cTnI) in Mice
• Normal mice control group, model group and testing drug group were set up; • Normal mice control group (n=10); • Model group (n=20): Prepared buffer solution was injected; • Testing drug group (n=20): 30 μg/kg of rhNRG-1 β was administered for 3, 5 and 7 consecutive days as three difference therapeutic courses with 20 animals assigned for each group; • Placebo control group (n=20): Intra-abdominal injection of non-CVB3 freeze-thaw cellular supernatant, 0.2 ml/animal. 10.2 Dosage Set Up, Preparation of Testing Drug, Route of Drug Administration, Times of Drug Administration, Concentration and Volume of the Testing Drug • rhNRG-1β was diluted with preparation buffer solution (10 mM PB, 0.2% human serum albumin, 5% mannitol to needed concentration; • Three drug administration groups were set up, intravenous injection for consecutive 3-day, 5-day and 7-day, drug volume for each dose was 0.2 ml/animal; • Drug administration of the model group was intravenous injection into the tail vein of mice, once every day (qd), for consecutive 7 days, drug volume for each dose was 0.2 ml/animal. 7.3 Method of the Experiment 7.3.1 Set Up of Acute Viral Myocariditis Animal Model in Mice

Rhesus = Rhesus long-term toxicity study, 3 weeks iv plus 3 weeks convalescence; conditions: 7.5, 15, 75 μg/kg/d iv 3 weeks
[3] = 7.5 μg/kg iv qd × 5, 7th day, (I)
[4] = 7.5 μg/kg iv qd × 5, 7th day, (II)
[5] = 15 μg/kg iv qd × 5, 7th day, (I)
[6] = 15 μg/kg iv qd × 5, 7th day, (I), listed as rhNRG-1β
[7] = 15 μg/kg iv qd × 5, 7th day, (II)
[8] = 30 μg/kg iv qd × 3, 7th day, (I)
[9] = 30 μg/kg iv qd × 3, 7th day, (I), listed as rhNRG-1β
[10] = 30 μg/kg iv qd × 3, 7th day, (II)
[11] = 30 μg/kg iv qd × 5, 7th day, (I)
[12] = 30 μg/kg iv qd × 5, 7th day, (I), listed as hNRG-1β
[13] = 30 μg/kg iv qd × 5, 7th day, (II)
[14] = 30 μg/kg iv qd × 5, 7th day, Example 5 (I)
[15] = 30 μg/kg iv qd × 5, 7th day, Example 5 (I), listed as rhNRG-1β
[16] = 30 μg/kg iv qd × 5, 7th day, Example 5 (II)
[17] = 30 μg/kg iv qd × 7, 7th day, (I)
[18] = 30 μg/kg iv qd × 7, 7th day, (I), listed as rhNRG-1β
[19] = 30 μg/kg iv qd × 7, 7th day, (II)

B1: rhNRG-1 β: Recombinant human neuregulin fragment of 61 amino acid (SEQ ID NO:4), 3 disulfide bonds, expressed in E. coli (protein, listed as Homo sapiens)
chain: SHLVKCAEKEKTFCVNGGECFMVKDLSNPSRYLCKCPNEFTGDRCQNYVMASFYKAEELYQ
modifications: disulfide (positions not given here)
Pathologic score Mean ± SD ([1]; 7.5 μg/kg iv qd × 5, (I)): 1.52 ± 0.74 | Pathologic score Mean ± SD ([1]; 7.5 μg/kg iv qd × 5, (II)): 1.34 ± 1.16 | Pathologic score Mean ± SD ([1]; 15 μg/kg iv qd × 5, (I)): 0.73±0.58 | Pathologic score Mean ± SD ([1]; 15 μg/kg iv qd × 5, (I), listed as rhNRG-1β): 0.73 ± 0.58 | Pathologic score Mean ± SD ([1]; 15 μg/kg iv qd × 5, (II)): 0.57 ± 0.58 | Pathologic score Mean ± SD ([1]; 30 μg/kg iv qd × 3, (I)): 0.33±0.155 | Pathologic score Mean ± SD ([1]; 30 μg/kg iv qd × 3, (I), listed as rhNRG-1β): 0.33 ± 0.155 | Pathologic score Mean ± SD ([1]; 30 μg/kg iv qd × 3, (II)): 0.55 ± 0.476 | Pathologic score Mean ± SD ([1]; 30 μg/kg iv qd × 5, (I)): 0.56±0.47 | Pathologic score Mean ± SD ([1]; 30 μg/kg iv qd × 5, (I), listed as rhNRG-1β): 0.56 ± 0.47 | Pathologic score Mean ± SD ([1]; 30 μg/kg iv qd × 5, (II)): 0.23 ± 0.26 | Pathologic score Mean ± SD ([1]; 30 μg/kg iv qd × 5, Example 5 (I)): 0.11±0.14 | Pathologic score Mean ± SD ([1]; 30 μg/kg iv qd × 5, Example 5 (I), listed as rhNRG-1β): 0.11 ± 0.140 | Pathologic score Mean ± SD ([1]; 30 μg/kg iv qd × 5, Example 5 (II)): 0.17 ± 0.157 | Pathologic score Mean ± SD ([1]; 30 μg/kg iv qd × 7, (I)): 0.13±0.13 | Pathologic score Mean ± SD ([1]; 30 μg/kg iv qd × 7, (I), listed as rhNRG-1β): 0.13 ± 0.132 | Pathologic score Mean ± SD ([1]; 30 μg/kg iv qd × 7, (II)): 0.19 ± 0.168 | EF [2, 3]: 78.1 ± 9.3% | FS [2, 3]: 41.7 ± 9.6% | LVDd [2, 3]: 0.191 ± 0.012 cm | LVDs [2, 3]: 0.114 ± 0.028 cm | EF [2, 4]: 71.9 ± 6.69% | FS [2, 4]: 35.7 ± 5.60% | LVDd [2, 4]: 0.213 ± 0.009 cm | LVDs [2, 4]: 0.133 ± 0.015 cm | EF [2, 5]: 86.0±2.9% | FS [2, 5]: 50.7±4.3% | LVDd [2, 5]: 0.189±0.008 cm | LVDs [2, 5]: 0.099±0.027 cm | EF [2, 6]: 81.3 ± 6.28 % | FS [2, 6]: 44.5 ± 8.27 % | LVDd [2, 6]: 0.189 ± 0.008 cm | LVDs [2, 6]: 0.099 ± 0.027 cm | EF [2, 7]: 81.6 ± 4.59 % | FS [2, 7]: 44.9 ± 5.68 % | LVDd [2, 7]: 0.201 ± 0.011 cm | LVDs [2, 7]: 0.114 ± 0.018 cm | EF [2, 8]: 73.1±6.6% | FS [2, 8]: 36.7 ± 4.7% | LVDd [2, 8]: 0.194 ± 0.008 cm | LVDs [2, 8]: 0.123±0.012 cm | EF [2, 9]: 73.1 ± 6.6% | LVDs [2, 9]: 0.123 ± 0.012 cm | EF [2, 10]: 81.0 ± 5.4% | FS [2, 10]: 43.9 ± 5.1% | LVDd [2, 10]: 0.211 ± 0.016 cm | LVDs [2, 10]: 0.121 ± 0.016 cm | EF [2, 11]: 90.2±2.5% | FS [2, 11]: 55.7±2.1% | LVDd [2, 11]: 0.187±0.006 cm | LVDs [2, 11]: 0.085±0.009 cm | EF [2, 12]: 90.2 ± 2.5 % | FS [2, 12]: 55.7 ± 2.1 % | LVDd [2, 12]: 0.187 ± 0.006 cm | LVDs [2, 12]: 0.085 ± 0.009 cm | EF [2, 13]: 87.7 ± 3.76 % | FS [2, 13]: 51.8 ± 5.24 % | LVDd [2, 13]: 0.196 ± 0.011 cm | LVDs [2, 13]: 0.094 ± 0.011 cm | EF [2, 14]: 86.8±4.4% | FS [2, 14]: 51.9±5.8% | LVDd [2, 14]: 0.187 ± 0.006 cm | LVDs [2, 14]: 0.090±0.011 cm | EF [2, 15]: 86.8 ± 4.4% | FS [2, 15]: 51.9 ± 5.8% | LVDs [2, 15]: 0.090 ± 0.011 cm | EF [2, 16]: 85.8 ± 4.205% | FS [2, 16]: 50.0 ± 6.350% | LVDd [2, 16]: 0.199 ± 0.000 cm | LVDs [2, 16]: 0.100 ± 0.014 cm | EF [2, 17]: 87.0±3.3% | FS [2, 17]: 51.8±5.1% | LVDd [2, 17]: 0.192 ± 0.008 cm | LVDs [2, 17]: 0.092±0.012 cm | EF [2, 18]: 87.0 ± 3.3% | FS [2, 18]: 51.8 ± 5.1% | LVDs [2, 18]: 0.092 ± 0.012 cm | EF [2, 19]: 87.283 ± 1.694% | FS [2, 19]: 52.367 ± 1.847% | LVDd [2, 19]: 0.194 ± 0.017 cm | LVDs [2, 19]: 0.092 ± 0.008 cm | animal death (Rhesus): No animal death associated with the testing drug
